Laboratory results: paper PMC6595007, “Structural basis for cooperativity of human monoclonal antibodies to meningococcal factor H-binding protein” (Communications Biology, 2019)

Legend:
Conditions in all cases: both partners purified
[1] = molecular target: T1, factor H-binding protein variant 1 (fHbp var.1), recombinant, full length (Neisseria meningitidis, UniProt E6MV22); assay: negative-stain transmission electron microscopy (single particle, random conical tilt); complexes formed at 1:1 molar ratio, 1 h at room temperature, purified on Superdex 200 Increase; diluted to 0.03 mg/ml in 20 mM Tris, 300 mM NaCl, pH 8; 1% uranyl acetate
T1 construct: source: E. coli BL21 (DE3) Star, pET-21b, purified (HisTrap HP, HiTrap SP HP)

[2] = molecular target: T1, factor H-binding protein variant 1 …; assay: HDX-MS; 54 pmol antibody mixed with an equimolar amount of fHbp var.1, 30 min at room temperature; exposure 30 s to 30 min; difference counted when above 1 Da
human factor H [3] = molecular target: T2, human factor H (human, UniProt P08603 19-1231); assay: SPR; fHbp var.1 captured on immobilised mAb 7B10, second mAb 1A3 injected, then fH at 100 nM, 30 µl/min; HBS-P
T2 construct: also called fH; human fH
T2 sequence (P08603 19-1231): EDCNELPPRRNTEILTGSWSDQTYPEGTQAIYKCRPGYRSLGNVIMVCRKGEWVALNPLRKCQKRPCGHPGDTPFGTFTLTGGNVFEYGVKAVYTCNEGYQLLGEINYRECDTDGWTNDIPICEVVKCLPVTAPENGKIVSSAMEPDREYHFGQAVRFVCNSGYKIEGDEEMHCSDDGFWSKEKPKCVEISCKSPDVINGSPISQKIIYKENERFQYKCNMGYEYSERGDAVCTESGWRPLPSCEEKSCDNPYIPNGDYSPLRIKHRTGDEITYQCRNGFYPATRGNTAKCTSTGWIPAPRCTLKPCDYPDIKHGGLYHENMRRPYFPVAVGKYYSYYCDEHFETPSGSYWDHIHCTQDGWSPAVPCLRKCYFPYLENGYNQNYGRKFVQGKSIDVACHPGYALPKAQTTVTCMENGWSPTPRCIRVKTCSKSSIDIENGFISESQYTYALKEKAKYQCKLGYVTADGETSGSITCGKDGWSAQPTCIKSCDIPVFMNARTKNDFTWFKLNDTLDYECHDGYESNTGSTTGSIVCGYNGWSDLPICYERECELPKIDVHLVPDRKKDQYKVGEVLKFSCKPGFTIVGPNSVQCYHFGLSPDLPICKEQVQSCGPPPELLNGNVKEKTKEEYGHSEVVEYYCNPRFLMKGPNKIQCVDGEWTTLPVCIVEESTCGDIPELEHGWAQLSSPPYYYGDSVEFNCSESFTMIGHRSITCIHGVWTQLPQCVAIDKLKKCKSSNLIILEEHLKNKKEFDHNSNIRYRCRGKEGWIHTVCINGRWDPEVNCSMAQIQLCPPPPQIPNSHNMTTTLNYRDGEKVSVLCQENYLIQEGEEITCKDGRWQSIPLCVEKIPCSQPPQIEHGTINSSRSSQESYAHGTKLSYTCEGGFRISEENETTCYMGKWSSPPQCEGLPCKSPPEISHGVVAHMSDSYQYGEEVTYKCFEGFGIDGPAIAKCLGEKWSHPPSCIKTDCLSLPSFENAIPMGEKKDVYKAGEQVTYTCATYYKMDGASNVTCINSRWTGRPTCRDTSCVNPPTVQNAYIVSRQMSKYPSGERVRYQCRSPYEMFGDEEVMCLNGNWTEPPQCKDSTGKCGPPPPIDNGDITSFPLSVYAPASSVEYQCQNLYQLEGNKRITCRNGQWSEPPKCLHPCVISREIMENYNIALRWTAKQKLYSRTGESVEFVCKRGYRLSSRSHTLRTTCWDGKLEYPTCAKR

human factor H [4] = molecular target: T2, human factor H; assay: SPR; ternary complex: fHbp var.1 captured on immobilised mAb 1A12 (CM-5), no second mAb; fH injected at 100 nM, 30 µl/min; HBS-P
human factor H [5] = molecular target: T2, human factor H; assay: SPR; quaternary complex: fHbp var.1 captured on immobilised mAb 7B10, second mAb 1A12 injected, then fH at 100 nM, 30 µl/min; HBS-P
human factor H [6] = molecular target: T2, human factor H; assay: SPR; fHbp var.1 captured on immobilised mAb 1A12, second mAb 2C1 injected, then fH at 100 nM, 30 µl/min; HBS-P
human factor H [7] = molecular target: T2, human factor H; assay: SPR; fHbp var.1 captured on immobilised mAb 1A3, second mAb 1A3 injected (identical, no signal of the second mAb), then fH at 100 nM, 30 µl/min; HBS-P
human factor H [8] = molecular target: T2, human factor H; assay: SPR; quaternary complex: fHbp var.1 captured on immobilised mAb 1A3, second mAb 2C1 injected, then fH at 100 nM, 30 µl/min; HBS-P
human factor H [9] = molecular target: T2, human factor H; assay: SPR; quaternary complex: fHbp var.1 captured on immobilised mAb 1A12, second mAb 1A3 injected, then fH at 100 nM, 30 µl/min; HBS-P
human factor H [10] = molecular target: T2, human factor H; assay: SPR; fHbp var.1 captured on immobilised mAb 1A12, second mAb 1A12 injected (identical, no signal of the second mAb), then fH at 100 nM, 30 µl/min; HBS-P
human factor H [11] = molecular target: T2, human factor H; assay: SPR; quaternary complex: fHbp var.1 captured on immobilised mAb 1A3, second mAb 1A12 injected, then fH at 100 nM, 30 µl/min; HBS-P
human factor H [12] = molecular target: T2, human factor H; assay: SPR; quaternary complex: fHbp var.1 captured on immobilised mAb 7B10, second mAb 2C1 injected, then fH at 100 nM, 30 µl/min; HBS-P
human factor H [13] = molecular target: T2, human factor H; assay: SPR; ternary complex: fHbp var.1 captured on immobilised mAb 1A3 (CM-5), no second mAb; fH injected at 100 nM, 30 µl/min; HBS-P
human factor H [14] = molecular target: T2, human factor H; assay: SPR; ternary complex: fHbp var.1 captured on immobilised mAb 7B10 (CM-5), no second mAb; fH injected at 100 nM, 30 µl/min; HBS-P
[15] = molecular target: T1, factor H-binding protein variant 1 …; assay: SPR

B1: antigen-binding fragment of human mAb 2C1 (Fab, V domains shown)
VH: QVQLVESGGGVVQPGRSLRLSCAASGFTFSSFAMHWVRQAPGKGLEWVAVTSFDGKDEYYAASVKGRFSVSRDISKNTVYLQMNSLKTEDTAVYYCAKDRGDWDFDYWGQGTLVTVSS
VL: SYELTQPPSVSVSPGQTATITCSGEKLGDKYTSWYQQKPGQSPVLIIYQDTKRPSGIPARFSGSNSGNTATLTISGTQAVDEADYYCQAWDSYTVPFGGGTKLTVL
notes: also called fAb2C1; huFab 2C1; source: E. coli Rosetta 2, purified (His Gravity Trap, HiTrap SP HP)
Does B1 bind [1]?
Result: binds

B2: human monoclonal antibody 2C1 (IgG1) against fHbp (antibody, V domains shown)
VH: B1 VH
VL: B1 VL
notes: also called mAb2C1; mAb 2C1; source: Expi293 cells, transiently transfected, purified (protein G beads)
Does B2 bind [2]?
Result: binds

B3: factor H-binding protein variant 1 (fHbp var.1), recombinant, full length (natural protein)
chain: CSSGGGGVAADIGAGLADALTAPLDHKDKGLQSLTLDQSVRKNEKLKLAAQGAEKTYGNGDSLNTGKLKNDKVSRFDFIRQIEVDGQLITLESGEFQVYKQSHSALTAFQTEQIQDSEHSGKMVAKRQFRIGDIAGEHTSFDKLPEGGRATYRGTAFGSDDAGGKLTYTIDFAAKQGNGKIEHLKSPELNVDLAAADIKPDGKRHAVISGSVLYNQAEKGSYSLGIFGGKAQEVAGSAEVKTVNGIRHIGLAAKQ
notes: source: E. coli BL21 (DE3) Star, pET-21b, purified (HisTrap HP, HiTrap SP HP)
With B3 as the binder, how does the koff (human factor H [3]) read?
Its koff is 0.00032 s⁻¹.

And the koff (human factor H [4])?
Its koff is 0.0016 s⁻¹.

What about the koff (human factor H [5]) of the same binder?
The koff was 0.00011 s⁻¹.

What about the koff (human factor H [6]) of the same binder?
The koff was 0.043 s⁻¹.

And the koff (human factor H [7])?
The koff was 0.00074 s⁻¹.

And the koff (human factor H [8])?
Its koff is 0.00063 s⁻¹.

What about the koff (human factor H [9]) of the same binder?
Its koff is 0.00068 s⁻¹.

And the koff (human factor H [10])?
The koff was 0.0018 s⁻¹.

What about the koff (human factor H [11]) of the same binder?
Its koff is 0.00035 s⁻¹.

And the koff (human factor H [12])?
Its koff is 0.00029 s⁻¹.

And the koff (human factor H [13])?
The koff was 0.00074 s⁻¹.

What about the koff (human factor H [14]) of the same binder?
The koff was 0.00032 s⁻¹.

B4: human monoclonal antibody 1A12 (IgG1) against fHbp (antibody, V domains shown)
VH: EVQLVQSGAELKKPGESLKISCKASGYTFTNYWVVWVRQMPGEGLEWMGSIHPRDSDARYSLSFEGRVTFSVDKSTTTAYLQWSSLKVSDSAIYYCARLSQVSGWSPWVGPWGQGTLVTVSS
VL: DIVMTQSPSSLSASVGDRVTITCRASQSISVSLNWYQQKPGKAPKVLIYAASRLQSGIPSRFSGSGSGSHFTLTISSLQPEDFATYYCQETYSDLMYTFGQGTKVEIK
notes: also called mAb1A12; mAb 1A12; source: Expi293 cells, transiently transfected, purified (protein G beads)
Does B4 bind [15]?
Result: binds

B5: human monoclonal antibody 1A3 (IgG1) against fHbp (antibody, V domains shown)
VH: EVQLVESGGGLVQPGGSLRLSCAASGFTFSSYAMSWVRQAPGKGLEWVSAISGSGGSSHYTDSVKGRFTISRDNSKNTLWLQMNSLRAEDTAIYYCAKTSGSYYYHYEIDVWGQGTTVTVSS
VL: EIVLTQSPGTLSLSPGERATLSCRASQSVSSSYLAWYQQKPGQAPRLLIYGTSNRATGIPDRFSGSGSGTDFTLTVSRLEPEDFAVYYCQQYGSSPCSFGQGTKLELK
notes: also called mAb1A3; mAb 1A3; source: Expi293 cells, transiently transfected, purified (protein G beads)
Does B5 bind [15]?
Result: binds

B6: human monoclonal antibody 7B10 (IgG1) against fHbp (antibody, V domains shown)
VH: QVQLVESGGGLVQPGGSLRLSCVTSGFTFRSYAMTWVRQAPGKGLEWVSSISHSGGSTKYADSVKGRLTISRDDSMDTLYLQMNSLRAEDTAIYYCAKDQISYPAASPLDYWGRGTLVTVSS
VL: EIVLTQSPGTLSLSPGERATLSCRASQSFSSFSLAWYQQKPGQAPRLLIYAPSNRATGIADRFSGSGSGTDFTLTISRLEPEDFAVYYCQQYGSSPITFGQGTRLEIK
notes: also called mAb7B10; mAb 7B10; source: Expi293 cells, transiently transfected, purified (protein G beads)
Does B6 bind [2]?
Result: binds

B7: antigen-binding fragment of human mAb 7B10 (Fab, V domains shown)
VH: B6 VH
VL: B6 VL
notes: also called fAb7B10; huFab 7B10; source: E. coli Rosetta 2, purified (His Gravity Trap, HiTrap SP HP)
Does B7 bind [1]?
Result: binds
